Data on two molecules can be found in publication PMC8887487 (Nucleic Acids Research, 2022).

For one test, the target named is T1, 256–595 domain of Dicer (human, UniProt Q9UPY3 256-595).
T1 sequence: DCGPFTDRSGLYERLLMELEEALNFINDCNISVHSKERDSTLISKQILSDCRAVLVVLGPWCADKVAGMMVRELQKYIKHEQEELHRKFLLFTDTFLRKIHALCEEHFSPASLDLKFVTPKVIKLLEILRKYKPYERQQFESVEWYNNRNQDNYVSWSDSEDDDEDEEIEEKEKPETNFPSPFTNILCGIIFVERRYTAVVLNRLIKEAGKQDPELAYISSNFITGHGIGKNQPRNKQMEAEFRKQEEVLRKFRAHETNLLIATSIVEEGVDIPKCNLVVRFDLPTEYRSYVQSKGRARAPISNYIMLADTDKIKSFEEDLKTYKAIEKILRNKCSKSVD
Kind of test: SEC. (In general: SEC sorts molecules by how far they enter the pores of the column.)

In test [1] the target is GST (glutathione-S-transferase)-tagged RPAP3 (human, UniProt Q9H6T3 1-665). Kind of test: pull-down.
GST (glutathione-S-transferase)-tagged RPAP3, sequence (Q9H6T3 whole entry): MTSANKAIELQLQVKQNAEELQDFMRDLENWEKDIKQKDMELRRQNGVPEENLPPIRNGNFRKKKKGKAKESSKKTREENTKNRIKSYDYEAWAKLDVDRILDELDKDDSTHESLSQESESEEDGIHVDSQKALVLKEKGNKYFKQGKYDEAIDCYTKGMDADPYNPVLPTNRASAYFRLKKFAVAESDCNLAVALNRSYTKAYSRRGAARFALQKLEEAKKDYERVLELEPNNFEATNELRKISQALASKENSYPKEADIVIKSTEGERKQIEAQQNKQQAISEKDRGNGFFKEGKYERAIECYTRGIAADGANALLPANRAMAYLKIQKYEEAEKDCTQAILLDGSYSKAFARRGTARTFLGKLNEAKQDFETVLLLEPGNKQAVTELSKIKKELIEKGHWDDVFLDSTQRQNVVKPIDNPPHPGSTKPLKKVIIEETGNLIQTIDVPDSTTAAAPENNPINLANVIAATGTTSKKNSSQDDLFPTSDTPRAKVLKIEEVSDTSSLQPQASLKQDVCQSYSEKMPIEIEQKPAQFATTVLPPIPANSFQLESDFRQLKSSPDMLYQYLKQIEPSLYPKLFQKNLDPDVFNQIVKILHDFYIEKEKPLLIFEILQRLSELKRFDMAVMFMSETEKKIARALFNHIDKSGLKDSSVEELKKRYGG

B1: TRBP-dsRBD3 (262–366) (domain or fragment)
chain: GCTWDSLRNSVGEKILSLRSCSLGSLGALGPACCRVLSELSEEQAFHVSYLDIEELSLSGLCQCLVELSTQPATVCHGSATTREAARGEAARRALQYLKIMAGSK
Regarding B1, in the test with 256–595 domain of Dicer, the binding result is given as “binds”.

B2: His6-tagged TRBP protein (natural protein)
chain: MSEEEQGSGTTTGCGLPSIEQMLAANPGKTPISLLQEYGTRIGKTPVYDLLKAEGQAHQPNFTFRVTVGDTSCTGQGPSKKAAKHKAAEVALKHLKGGSMLEPALEDSSSFSPLDSSLPEDIPVFTAAAAATPVPSVVLTRSPPMELQPPVSPQQSECNPVGALQELVVQKGWRLPEYTVTQESGPAHRKEFTMTCRVERFIEIGSGTSKKLAKRNAAAKMLLRVHTVPLDARDGNEVEPDDDHFSIGVGSRLDGLRNRGPGCTWDSLRNSVGEKILSLRSCSLGSLGALGPACCRVLSELSEEQAFHVSYLDIEELSLSGLCQCLVELSTQPATVCHGSATTREAARGEAARRALQYLKIMAGSK
Consider B2, for which, in test [1], the binding result was “binds”.
